# Measured values from publication PMC6780499, “Characterization, Recombinant Production and Structure-Function Analysis of NvCI, A Picomolar Metallocarboxypeptidase Inhibitor from the Marine Snail Nerita versicolor” (Marine Drugs, 2019).
# No end group written: not given here.
# B1: NvCI (protein)
# chain: FHVPDDRPCINPGRCPLVPDATCTFVCKAADNDFGYECQHVWTFEGQRVGCYA
# modifications: disulfide (positions not given here); not fully specified (bridges); ends not checked
# Experiments:
# Assay in all cases: Ki, residual activity
# hCPA1 = biological target: T1, hCPA1 (Homo sapiens (Human), UniProt P15085)
# T1 chain: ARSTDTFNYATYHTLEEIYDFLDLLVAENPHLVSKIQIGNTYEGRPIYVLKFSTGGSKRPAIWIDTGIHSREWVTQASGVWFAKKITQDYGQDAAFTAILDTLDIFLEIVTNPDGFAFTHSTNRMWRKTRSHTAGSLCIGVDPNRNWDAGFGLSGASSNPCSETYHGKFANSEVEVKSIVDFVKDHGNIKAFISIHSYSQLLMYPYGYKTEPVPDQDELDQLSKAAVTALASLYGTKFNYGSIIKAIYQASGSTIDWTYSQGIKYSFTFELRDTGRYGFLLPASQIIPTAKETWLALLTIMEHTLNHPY
# bCPA1 = biological target: T2, bCPA1 (Bos taurus (Bovine), UniProt P00730)
# T2 chain: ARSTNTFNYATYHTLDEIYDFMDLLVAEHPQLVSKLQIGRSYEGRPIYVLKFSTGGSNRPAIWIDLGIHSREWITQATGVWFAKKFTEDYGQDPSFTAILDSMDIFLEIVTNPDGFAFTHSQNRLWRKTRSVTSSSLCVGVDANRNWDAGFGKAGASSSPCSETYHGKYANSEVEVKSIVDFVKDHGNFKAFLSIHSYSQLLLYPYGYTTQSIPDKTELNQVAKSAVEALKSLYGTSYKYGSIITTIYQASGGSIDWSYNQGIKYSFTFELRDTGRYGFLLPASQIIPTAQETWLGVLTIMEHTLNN
# bTAFI = biological target: T3, bTAFI (Bos taurus (Bovine), UniProt Q2KIG3)
# T3 chain: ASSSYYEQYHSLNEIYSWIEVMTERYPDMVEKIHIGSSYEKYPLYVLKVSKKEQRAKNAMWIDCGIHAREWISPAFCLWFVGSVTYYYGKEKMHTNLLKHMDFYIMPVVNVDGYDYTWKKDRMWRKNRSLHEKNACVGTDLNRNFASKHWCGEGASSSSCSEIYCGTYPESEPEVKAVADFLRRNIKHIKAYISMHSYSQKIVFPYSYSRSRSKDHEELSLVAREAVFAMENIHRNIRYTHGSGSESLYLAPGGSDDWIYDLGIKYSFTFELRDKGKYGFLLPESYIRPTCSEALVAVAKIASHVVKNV
# hCPA2 = biological target: T4, hCPA2 (Homo sapiens (Human), UniProt P48052)
# T4 chain: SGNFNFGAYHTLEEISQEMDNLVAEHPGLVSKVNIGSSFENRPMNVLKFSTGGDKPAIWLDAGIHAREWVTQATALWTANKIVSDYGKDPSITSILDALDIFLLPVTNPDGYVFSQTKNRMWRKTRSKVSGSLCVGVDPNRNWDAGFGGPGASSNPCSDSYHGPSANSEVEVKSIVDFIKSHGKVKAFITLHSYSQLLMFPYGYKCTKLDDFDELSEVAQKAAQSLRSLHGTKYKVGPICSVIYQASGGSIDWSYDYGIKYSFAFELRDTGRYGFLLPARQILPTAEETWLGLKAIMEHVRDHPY
# pCPB = biological target: T5, pCPB (Sus scrofa (Pig), UniProt P09955)
# T5 chain: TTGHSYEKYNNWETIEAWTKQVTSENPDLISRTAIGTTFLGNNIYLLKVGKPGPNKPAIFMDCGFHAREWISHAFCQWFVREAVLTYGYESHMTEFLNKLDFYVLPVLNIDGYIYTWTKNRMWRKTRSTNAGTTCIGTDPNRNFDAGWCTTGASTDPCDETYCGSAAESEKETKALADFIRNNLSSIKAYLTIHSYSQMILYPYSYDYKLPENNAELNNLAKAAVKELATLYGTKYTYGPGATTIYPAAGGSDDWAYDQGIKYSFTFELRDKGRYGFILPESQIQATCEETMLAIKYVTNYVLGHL
# rCPA3 = biological target: T6, rCPA3 (Rattus norvegicus (Rat), UniProt P21961)
# T6 chain: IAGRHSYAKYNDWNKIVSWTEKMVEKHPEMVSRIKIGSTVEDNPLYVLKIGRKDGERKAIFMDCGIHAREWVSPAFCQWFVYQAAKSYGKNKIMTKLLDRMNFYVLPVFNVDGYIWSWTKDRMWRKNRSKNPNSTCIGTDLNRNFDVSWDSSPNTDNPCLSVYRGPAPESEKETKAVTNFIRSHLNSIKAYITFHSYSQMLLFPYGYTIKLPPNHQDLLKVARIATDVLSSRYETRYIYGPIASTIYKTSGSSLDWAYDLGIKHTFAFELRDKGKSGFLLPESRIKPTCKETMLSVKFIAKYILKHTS
# hCPA4 = biological target: T7, hCPA4 (Homo sapiens (Human), UniProt Q9UI42)
# T7 chain: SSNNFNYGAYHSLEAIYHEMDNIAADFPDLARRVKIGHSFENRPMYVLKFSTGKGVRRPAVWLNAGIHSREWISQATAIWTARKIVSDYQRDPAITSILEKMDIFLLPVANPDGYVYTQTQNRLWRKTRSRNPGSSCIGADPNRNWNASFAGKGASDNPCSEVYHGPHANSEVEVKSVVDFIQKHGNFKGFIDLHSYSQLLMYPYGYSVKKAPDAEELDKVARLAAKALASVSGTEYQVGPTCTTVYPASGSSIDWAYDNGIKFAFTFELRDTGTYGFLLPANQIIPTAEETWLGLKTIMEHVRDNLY
# hTAFI = biological target: T8, hTAFI (Homo sapiens (Human), UniProt Q96IY4)
# T8 chain: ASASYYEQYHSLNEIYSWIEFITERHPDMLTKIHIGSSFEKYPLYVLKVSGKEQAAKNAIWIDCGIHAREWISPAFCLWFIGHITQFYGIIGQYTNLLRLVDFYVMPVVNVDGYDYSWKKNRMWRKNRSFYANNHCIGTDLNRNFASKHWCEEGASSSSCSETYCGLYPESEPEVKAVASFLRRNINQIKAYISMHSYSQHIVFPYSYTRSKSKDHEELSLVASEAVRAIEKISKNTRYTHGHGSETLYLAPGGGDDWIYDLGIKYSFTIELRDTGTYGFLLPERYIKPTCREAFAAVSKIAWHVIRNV
binder,measurement,setting,value
B1,Kd,hCPA1,0.0012 nM
same,Kd,bCPA1,0.0058 nM
same,Kd,bTAFI,0.0841 nM
same,Kd,hCPA2,2.94 nM
same,Kd,pCPB,0.335 nM
same,Kd,rCPA3,0.1 nM
same,Kd,hCPA4,0.0049 nM
same,Kd,hTAFI,0.951 nM
